Positions count from the first letter of the chain named. Numbers in names are those of the source. Where no end group is shown, it is not given here.
B1: A3CT K457A/R458A (domain or fragment)
chain: DENASKIISAGRAKRSIAQPDDAGERFRQLKEQEKRSKKNKAVAKDTVELVEESQSESEEGSDDEEEEAREGALASSTTSKPLPEVGQRRSKRSAAKRTV
B2: A3CT K459A/R460A (domain or fragment)
chain: B1 chain with A95K, A96R, K97A, R98A

target: full-length cpSRP43 (UniProt O22265); experiment: ITC; VP-ITC, 20 °C, 20 mM Hepes (pH 7.5), 150 mM NaCl, 5 mM MgCl2, 0.25 mM TCEP; 0.01–0.1 mM in the cell, 0.1–1.0 mM in the syringe; duplicate or triplicate

Row | Kd [µM] | Binder
1 | 44 | B1
2 | 20 | B2
3 | 15 | GALASSTTSKPLPEVGQRRSKRSKRKRT (also: 15N,13C labelled where it is the observed NMR partner) [A3CT IV peptide]
